{"source": "paper PMC3044768", "molecular_target": "authentic wild-type SARS-CoV 3C-like protease (3CLpro) (SARS-CoV) (UniProt P0C6X7)", "assay": "ITC", "data": [{"substance": "authentic wild-type SARS-CoV 3C-like protease (3CLpro) (from UniProt P0C6X7 3241-3546) (enzyme)", "values": [{"measurement": "Kd", "result": 21.4, "unit": "µM"}]}]}
